Experimental data from patent EP4725967A1 (Nanjing Probio Biotech Co., Ltd., dated 2026).
Residue numbers refer to the chain shown, from its start. Each block holds one binder with its values, some of them ahead of it.

How the values were obtained:
human CCR8 [1] = molecular target: T1, human CCR8 (human, UniProt P51685 1-355); assay: flow cytometry on HEK293/hu-CCR8 cells (FIG. 5A)
T1 construct: whole, on cells; also called hu-CCR8; CC chemokine receptor 8

human CCR8 [2] = molecular target: T1, human CCR8; assay: flow cytometry, hybridoma supernatant on HEK293/hu-CCR8 cells
human CCR8 [3] = molecular target: T1, human CCR8; assay: flow cytometry on HEK293/hu-CCR8 cells, chimeric antibody (FIG. 1A)
human CCR8 [4] = molecular target: T1, human CCR8; assay: flow cytometry on HEK293/hu-CCR8 cells, chimeric antibody (FIG. 1B)

T1 sequence (P51685 whole entry): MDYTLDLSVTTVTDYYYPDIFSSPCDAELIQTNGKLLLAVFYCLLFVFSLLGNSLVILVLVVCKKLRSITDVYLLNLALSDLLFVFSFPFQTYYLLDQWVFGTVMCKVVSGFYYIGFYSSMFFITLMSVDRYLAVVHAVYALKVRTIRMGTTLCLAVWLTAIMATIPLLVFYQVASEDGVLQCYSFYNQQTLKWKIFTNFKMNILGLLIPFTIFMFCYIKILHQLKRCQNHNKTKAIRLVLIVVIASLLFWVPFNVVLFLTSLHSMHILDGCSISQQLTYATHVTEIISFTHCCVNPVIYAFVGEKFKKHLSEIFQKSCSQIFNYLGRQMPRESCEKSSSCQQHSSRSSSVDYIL

binding result (human CCR8 [3]): binds
B3: chimeric antibody 154G7C3 (antibody, human IgG1, kappa, V domains shown)
VH: QVQLQQSGAELVRPGASVTLSCKTSGYTFTDFEMHWVKQTPVHGLEWIGAFDPETGGTAYNQKFKGKAILTADKSSSTAYMELRSLTSEDSAVYYCTGRLRRHFDSWGQGTTLTVSS
VL: DVVMTQTPLSLPVSLGDQASISCRSSQSLVHSYGNTYLHWYLQKPGQSPKLLIYKVSNRFSGVPDRFSGSGSGTDFTLKISRVEAEDLGVYFCSQSTHVPFTFGSGTKLEIKR
notes: Murine variable regions on human IgG1/kappa

binding result (human CCR8 [4]): binds
B4: chimeric antibody 224E9A3 (antibody, human IgG1, kappa, V domains shown)
VH: EVQLVESGGGLVQPKGSLKLSCAASGFTFNTYAMYWVCQAPGKGLEWVARIRSKSNNYATYYADSVKDRFTISRDDSQSMLYLQMNNLKTEDTAMYYCVRGGRGNYLYAMDYWGQGTSVTVSS
VL: DIVMTQAAPSVPVTPGESVSISCRSSKSLLHSNGNTYLYWFLQRPGQSPQLLIYRMSNLASGVPDRFSGSGSGSAFTLRISRVEAEDVGVYYCMQHLEYPFTFGSGTKLEIKR
notes: as for B3

binding result (human CCR8 [1]): binds
B7: humanized antibody 154G7C3-VH1.1-VL2 (antibody, human IgG1, kappa, V domains shown)
VH: QVQLVQSGAEVKKPGASVKVSCKVSGYTFTDFEMHWVRQAPGKGLEWIGAFDPETGGTAYNQKFKGRVTMTEDTSTDTAYMELSSLRSEDTAVYYCTGRLRRHFDSWGQGTLVTVSS
VL: B3 VL with V2I, T7S, S14T, L15P, D17E, Q18P, K50Q, L88V, F92Y, S105Q
notes: Human IgG1/kappa

binding result (human CCR8 [2]): binds
B8: antibody produced by monoclonal clone 117G9F9 (murine, hybridoma) (antibody, V domains shown)
VH: EVQLVESGGGLVQPKGSLKLSCAASGFSFNTYAMNWVRQAPGKGLEWVARIRSKSNYYATYYADSVKDRFTISRDDSESMLYLQMNNLKTEDTAMYYCVRGGNSYGSSYFDYWGQGTTLTVSS
VL: DIVMTQAAPSVPVTPGESVSISCRSSKSLLHRNGNTYLYWFLQRPGQSPQLLIYRMSNLASGVPDRFSGSGSGTAFTLRISRLEAEDVGVYYCMQHLEYPFTFGAGTKLELK
notes: Mouse antibody in hybridoma supernatant; Taking 31/32 as murine rests only on the order of listing

Continued, binder first:

B1: humanized antibody 117G9F9-VH2.1-VL1 (antibody, human IgG1, kappa, V domains shown)
VH: EVQLVESGGGLVKPGGSLRLSCAASGFSFNTYAMNWVRQAPGKGLEWVGRIRSKSNYYATYYADSVKDRFTISRDDSKNTLYLQMNSLKTEDTAVYYCVRGGNSYGSSYFDYWGQGTLVTVSS
VL: DIVMTQSPLSLPVTPGEPASISCRSSKSLLHRNGNTYLYWYLQKPGQSPQLLIYRMSNLASGVPDRFSGSGSGTDFTLKISRVEAEDVGVYYCMQHLEYPFTFGQGTKLEIKR
notes: Human IgG1/kappa
binding result (human CCR8 [1]): binds

B2: antibody produced by monoclonal clone 154G7C3 (murine, hybridoma) (antibody, V domains shown)
VH: B3 VH
VL: DVVMTQTPLSLPVSLGDQASISCRSSQSLVHSYGNTYLHWYLQKPGQSPKLLIYKVSNRFSGVPDRFSGSGSGTDFTLKISRVEAEDLGVYFCSQSTHVPFTFGSGTKLEIK
notes: Mouse antibody in hybridoma supernatant; Taking 27/28 as murine rests only on the order of listing
binding result (human CCR8 [2]): binds

B5: antibody produced by monoclonal clone 224E9A3 (murine, hybridoma) (antibody, V domains shown)
VH: B4 VH
VL: B8 VL with R32S, T74S, L83V, A105S, L111I
notes: Mouse antibody in hybridoma supernatant
binding result (human CCR8 [2]): binds

B6: chimeric antibody 117G9F9 (antibody, human IgG1, kappa, V domains shown)
VH: B8 VH
VL: B4 VL with S32R, S74T, V83L, S105A, I111L
notes: as for B3
binding result (human CCR8 [3]): binds
